# Source: patent publication US20130039933
# Assays:
# [1] = tested on: A366 peptide (STING peptide substrate with alanine at 366)
# [2] = tested on: S366 peptide (STING peptide substrate with serine 366)
Substance,Activity (cpm) [1] [cpm],Activity (cpm) [2] [cpm],Fold induction [2] [fold]
NEK7,3620,19100,5.28
CK1δ,15600,25200,1.62
PIM2,1410,3720,2.63
NEK6,5510,35600,6.45
